The values below come from paper PMC4640858.

The target in this experiment is QsdR (Quorum sensing degradation Regulation) wild type, transcriptional regulator of the TetR/FabR family (Rhodococcus erythropolis R138). Kind of experiment: SEC; gel filtration Superdex 200 26/60, buffer A (50 mM Tris-HCl pH 8, 150 mM NaCl); molecular mass estimate 44 kDa.

The stoichiometry N is the number of molecules, sites or subunits per partner or assembly. Turning to “QsdR (Quorum sensing degradation Regulation) wild type, transcriptional regulator of the TetR/FabR family (natural protein)”, the stoichiometry N was 2.
